The target in the experiment is T1, Cathepsin L (Calbiochem) (UniProt P07711 114-333, limits assumed).
T1 construct: Bought enzyme
The experiment can be described thus: complex binding, 2 ug SCCA protein mixed with cathepsin, 37 C 30 min, SDS-PAGE. Here is the method: Complex binding of SCCA to substrates was performed by mixing 2 μg of SCCA-protein with 0.5 μg of Cathepsin G (Biodesign Int.) or 0.5 μg of […] Cathepsin L (Calbiochem) in 1×PBS buffer in a total volume of 4.5 μl. Samples were incubated at 37° C. for 30 minutes. To each sample, 0.5 μl of 10× Complex-buffer (20% SDS, 140 mM Mercaptoethanol, bromophenolblue) was added. Samples were incubated for 3 minutes at 95° C. and analyzed on a 12.5% SDS-PAGE-gel. The SCCA1/A2 fusion protein forms a complex with Cathepsin G but not with Cathepsin L showing that the fusion protein is functional and has the substrate specificity of SCCA2 (FIG. 8).

T1 sequence (P07711 114-333 limits assumed): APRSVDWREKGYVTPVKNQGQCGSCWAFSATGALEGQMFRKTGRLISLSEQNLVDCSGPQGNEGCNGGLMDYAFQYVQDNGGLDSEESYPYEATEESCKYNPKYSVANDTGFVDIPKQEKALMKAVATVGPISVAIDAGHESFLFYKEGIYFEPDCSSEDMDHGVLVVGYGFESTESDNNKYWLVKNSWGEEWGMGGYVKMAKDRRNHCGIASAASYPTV

B1: SCCA1/SCCA2 fusion protein (other)
chain: MNSLSEANTKFMFDLFQQFRKSKENNIFYSPISITSALGMVLLGAKDNTAQQIKKVLHFDQVTENTTGKAATYHVDRSGNVHHQFQKLLTEFNKSTDAYELKIANKLFGEKTYLFLQEYLDAIKKFYQTSVESVDFANAPEESRKKINSWVESQTNEKIKNLIPEGNIGSNTTLVLVNAIYFKGQWEKKFNKEDTKEEKFWPNKNTYKSIQMMRQYTSFHFASLEDVQAKVLEIPYKGKDLSMIVLLPNEIDGLQKLEEKLTAEKLMEWTSLQNMRETCVDLHLPRFKMEESYDLKDTLRTMGMVNIFNGDADLSGMTWSHGLSVSKVLHKAFVEVTEEGVEAAAATAVVVVELSSPSTNEEFCCNHPFLFFIRQNKTNSILFYGRFSSP
notes: Recombinant serpin fusion (exons 2-7 of SCCA1 fused to exon 8 of SCCA2); also called SCCA1/A2; SCCA1/A2 fusion protein
On to B1, for which the binding result is “no binding”.

(Values after patent publication US20070218463A1 (CANAG DIAGNOSTICS, published 2007).)
